These results are taken from article PMC8080960 (The journal of physical chemistry. B, 2021).

This data set concerns the molecule itself. Briefly: amyloid fibril formation.

B1: C-terminal domain of TDP-43 (TDP-43CTD), wild type, residues 267-414, tagless (domain or fragment)
chain: GHMNRQLERSGRFGGNPGGFGNQGGFGNSRGGGAGLGNNQGSNMGGGMNFGAFSINPAMMAAAQAALQSSWGMMGMLASQQNQSGPSGNNQNQGNMQREPNQAFGSGNNSYSGSNSGAAIGWGSASNAGSGSGFNGGFGSSMDSKSSGWGM
Turning to B1, the binding result is “binds”.
